These results are taken from paper PMC4649501 (2015).

Assay [1] addresses PDCD6 (Homo sapiens, UniProt O75340). Put plainly: SPR. In general terms: Surface plasmon resonance follows binding to a sensor surface in real time, without labels.
The target of assay [2] is T1, PDCD6 N-terminal domain peptide (Homo sapiens, Ca2+ (100 uM CaCl2)).
T1 chain: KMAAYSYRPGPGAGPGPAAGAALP
Kind of assay: SPR.

PDCD6, sequence (O75340 2-191): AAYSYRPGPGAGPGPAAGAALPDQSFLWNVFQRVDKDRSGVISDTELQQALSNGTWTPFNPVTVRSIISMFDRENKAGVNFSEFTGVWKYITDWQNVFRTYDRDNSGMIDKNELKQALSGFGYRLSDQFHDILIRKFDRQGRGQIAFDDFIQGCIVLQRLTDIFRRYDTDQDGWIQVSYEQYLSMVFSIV

B1: Sorcin (protein)
chain: MAYPGHPGAGGGYYPGGYGGAPGGPAFPGQTQDPLYGYFAAVAGQDGQIDADELQRCLTQSGIAGGYKPFNLETCRLMVSMLDRDMSGTMGFNEFKELWAVLNGWRQHFISFDTDRSGTVDPQELQKALTTMGFRLSPQAVNSIAKRYSTNGKITFDDYIACCVKLRALTDSFRRRDTAQQGVVNFPYDDFIQCVMSV
What is called Kd is the equilibrium constant for the complex coming apart. A low value points to higher affinity. Regarding B1, the values for the Kd in assay [1] and in assay [2] were 12 µM and 5 µM, respectively.

B2: Sorcin (protein)
chain: MAYPGHPGAGGGYYPGGYGGAPGGPAFPGQTQDPLYGYFAAVAGQDGQIDADELQRCLTQSGIAGGYKPFNLETCRLMVSMLDRDMSGTMGFNEFKELWAVLNGWRQHFISFDTDRSGTVDPQELQKALTTMGFRLSPQAVNSIAKRYSTNGKITFDDYIACCVKLRALTDSFRRRDTAQQGVVNFPYDDFIQCVMSV
modifications: Ca2+ (100 uM CaCl2)
Regarding B2, the Kd in assay [1] amounted to 3.5 µM.

B3: SCBD (Sorcin calcium-binding domain) 33-198 (protein)
chain: DPLYGYFAAVAGQDGQIDADELQRCLTQSGIAGGYKPFNLETCRLMVSMLDRDMSGTMGFNEFKELWAVLNGWRQHFISFDTDRSGTVDPQELQKALTTMGFRLSPQAVNSIAKRYSTNGKITFDDYIACCVKLRALTDSFRRRDTAQQGVVNFPYDDFIQCVMSV
Consider B3, for which the figures for the Kd in assay [1] and in assay [2] were 5 µM and 6 µM, respectively.

B4: SCBD (Sorcin calcium-binding domain) 33-198 (protein)
chain: DPLYGYFAAVAGQDGQIDADELQRCLTQSGIAGGYKPFNLETCRLMVSMLDRDMSGTMGFNEFKELWAVLNGWRQHFISFDTDRSGTVDPQELQKALTTMGFRLSPQAVNSIAKRYSTNGKITFDDYIACCVKLRALTDSFRRRDTAQQGVVNFPYDDFIQCVMSV
modifications: Ca2+ (100 uM CaCl2)
Take B4: in assay [1], the dissociation constant (Kd) amounted to 3.5 µM. This counts as single-digit micromolar.
